Reference: patent US20120190558A1

Target: endogenous KCNH2-1A of rat cortical neurons (rat) (UniProt O08962)
Assay: cell-based or functional assay

Substance: Isoform 3.1 of KCNH2 (human) (from UniProt Q12809 103-1159)
- deactivation time constant (tau) of E-4031-sensitive tail current, slow component, at -100 mV of command potential: 7.43 fold
- fold decrease in deactivation time constant (tau) of E-4031-sensitive tail current, fast component, at -100 mV of command potential: 5.88 fold
